From paper PMC3310279 (Bioconjugate Chemistry, 2012)

System: MDA-MB-435 human breast tumor xenografts
Experiment: Biodistribution in mice bearing MDA-MB-435 xenografts
Format: in vivo
Details: MDA-MB-435 tumor-bearing athymic nude mice, 60 min p.i., mean ± SD n = 4

Substance: [^99mTc(HYNIC-K(NIC)-3G-RGD2)(tricine)] [Complex 2]
- Tumor/Liver ratio: 4.1 ± 0.97
